5 molecules from patent publication US20250129168A1 can be followed below.

For assay [1], the target named is recombinant human-Dectin-1 mouse Fc fusion (human) (UniProt Q9BXN2). Description: biosensor, Fab, first K dis column.
The target is the same in assay [2]. In words: biosensor, Fab, third K dis column.
Assay [3] has the same target. In words: biosensor, Fab, Ave of three.
For assay [4] the target is unchanged. Description: biosensor, Fab, second K dis column.
Assay [5] shares this target. Description: biosensor, Fab, Ave K dis (n = 3); repeats Table 3.
Assay [6] shares this target. In words: Octet BLI, response at X. Background: Biolayer interferometry detects binding as a change in optical thickness at a sensor tip.
Assay [7] shares this target. Description: Octet BLI, delta between the two X values.

Residue numbers refer to the chain shown, from its start.

B1: 2M24A.23 hFab H1 (Fab, V domains shown)
VH: QVQLVQSGAEVKKPGASVKVSCKSSGYTFTDYYIHWVRQAPGQGLEWMGWINPNSGDTNYAQKFQGRVTMTRDTSISTAYMELSRLRSDDTAVYYCARNSGSYSFGYWGQGTLVTVSS
VL: DIQMTQSPSSVSASVGDRVTITCRASQGISSWLAWYQQKPGKAPKLLIFGASSLQSGVPSRFSGSGSGTDFTLTVSSLQPEDFATYYCQQAYSFPFTFGPGTKVDIE
On to B1, for which the koff in assay [1] was found to be 0.00841 s⁻¹; in assay [2], 0.00204 s⁻¹; in assay [3], 0.00396 s⁻¹; in assay [4], 0.00143 s⁻¹; in assay [5] it was 0.00396 s⁻¹.

B2: 2M24A.1.22 (Fab, V domains shown)
VH: B1 VH with V68I, M81L, Y94F, Y107A
VL: B1 VL
Regarding B2, in assay [6], the X = 290 is 0.131 and the X = 350 stood at 0.112. The delta in assay [7] stood at 15%.

B3: 2M24A.1.21 (Fab, V domains shown)
VH: B1 VH with V68I, M81L, Y94F, G106A
VL: B1 VL
With B3, in assay [6], the X = 290 came to 0.125 and the X = 350 worked out at 0.114. In assay [7], the delta stood at 8%.

B4: 2M24A.26 hFab H4 (Fab, V domains shown)
VH: B1 VH with I34M
VL: B1 VL
B4: the koff in assay [1] is 0.0053 s⁻¹; in assay [2], 0.0016 s⁻¹; in assay [3] it was 0.00264 s⁻¹; in assay [4] it was 0.00102 s⁻¹; in assay [5], 0.00264 s⁻¹.

B5: 2M24A.25 hFab H3 (Fab, V domains shown)
VH: B1 VH with S24A
VL: B1 VL
As for B5, the koff in assay [1] came out at 0.00765 s⁻¹; in assay [2], 0.00214 s⁻¹; in assay [3], 0.0037 s⁻¹; in assay [4] it was 0.00132 s⁻¹; in assay [5], 0.0037 s⁻¹.

As usually defined, the koff is the rate constant with which the complex falls apart.
